In test [1] the target is HP2 peptide with PIWI pentamer, N-terminal fluorescein (D. melanogaster). Put plainly: fluorescence polarisation. Background: In fluorescence polarisation assays a small probe gives low polarisation when free and higher when bound to something large.
For test [2], the target named is PIWI peptide with HP2 pentamer, N-terminal fluorescein (D. melanogaster). Description: fluorescence polarisation.
The target of test [3] is T1, Full length HP1a, pET11a construct (AUC) (D. melanogaster), P05205.
T1 chain: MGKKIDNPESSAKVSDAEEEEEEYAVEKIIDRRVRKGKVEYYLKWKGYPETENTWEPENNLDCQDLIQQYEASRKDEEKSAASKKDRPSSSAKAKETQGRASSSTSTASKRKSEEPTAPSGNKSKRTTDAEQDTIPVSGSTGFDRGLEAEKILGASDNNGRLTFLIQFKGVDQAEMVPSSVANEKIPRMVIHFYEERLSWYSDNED
Put plainly: AUC. Conditions: remark: other sources report otherwise.

B1: HP1a-CSD (residues 131-206), wild type (domain or fragment)
chain: EQDTIPVSGSTGFDRGLEAEKILGASDNNGRLTFLIQFKGVDQAEMVPSSVANEKIPRMVIHFYEERLSWYSDNED
In the case of B1, the values for the Kd in test [1] and in test [2] were 990 nM and 21300 nM, respectively.

B2: Full length HP1a, pET11a construct (AUC), P05205 1-206 (natural protein)
chain: T1 chain
B2: the Kd – broadly, the constant that tells how readily two partners part at equilibrium – in test [3] stood at 1400 nM.

The record behind these values is paper PMC3154745.
